# Assay results as given in the supplement of paper PMC10065799, “High-throughput profiling of sequence recognition by tyrosine kinases and SH2 domains using bacterial peptide display” (eLife, 2023).
# Assays:
# AncSZ = assay: phosphorylation enrichment, bacterial display (enrichment ratio); higher = better substrate or ligand; peptides without Tyr show the background
# EPHB1 = EPHB1 (UniProt P54762); assay: as above
# EPHB2 = EPHB2 (UniProt P29323); assay: as above
# FGFR1 = FGFR1 (UniProt P11362); assay: as above
# Sequence of FGFR1 (P11362 whole entry, looked up): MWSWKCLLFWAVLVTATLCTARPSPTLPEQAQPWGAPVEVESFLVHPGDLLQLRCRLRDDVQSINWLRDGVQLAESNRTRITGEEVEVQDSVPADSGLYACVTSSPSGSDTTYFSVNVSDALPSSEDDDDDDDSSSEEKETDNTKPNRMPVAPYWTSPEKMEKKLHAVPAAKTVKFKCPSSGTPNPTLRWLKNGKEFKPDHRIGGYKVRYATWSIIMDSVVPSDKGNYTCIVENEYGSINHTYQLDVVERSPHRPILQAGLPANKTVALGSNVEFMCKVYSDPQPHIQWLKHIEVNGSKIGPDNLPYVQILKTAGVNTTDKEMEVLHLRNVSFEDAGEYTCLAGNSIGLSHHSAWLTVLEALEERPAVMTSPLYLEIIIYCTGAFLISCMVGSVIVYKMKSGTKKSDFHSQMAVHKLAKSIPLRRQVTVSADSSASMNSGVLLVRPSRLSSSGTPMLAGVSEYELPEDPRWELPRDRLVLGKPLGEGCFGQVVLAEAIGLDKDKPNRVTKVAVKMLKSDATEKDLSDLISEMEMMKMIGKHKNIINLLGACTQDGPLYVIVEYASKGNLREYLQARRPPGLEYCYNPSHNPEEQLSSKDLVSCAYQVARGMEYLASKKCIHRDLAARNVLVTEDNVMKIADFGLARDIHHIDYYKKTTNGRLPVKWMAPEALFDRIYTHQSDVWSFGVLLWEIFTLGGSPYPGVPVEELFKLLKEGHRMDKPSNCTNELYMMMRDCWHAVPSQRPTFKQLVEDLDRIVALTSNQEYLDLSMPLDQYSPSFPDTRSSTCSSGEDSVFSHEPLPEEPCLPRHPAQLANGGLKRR
# FGFR3 = FGFR3 (UniProt P22607); assay: as above
# Sequence of FGFR3 (P22607 whole entry, looked up): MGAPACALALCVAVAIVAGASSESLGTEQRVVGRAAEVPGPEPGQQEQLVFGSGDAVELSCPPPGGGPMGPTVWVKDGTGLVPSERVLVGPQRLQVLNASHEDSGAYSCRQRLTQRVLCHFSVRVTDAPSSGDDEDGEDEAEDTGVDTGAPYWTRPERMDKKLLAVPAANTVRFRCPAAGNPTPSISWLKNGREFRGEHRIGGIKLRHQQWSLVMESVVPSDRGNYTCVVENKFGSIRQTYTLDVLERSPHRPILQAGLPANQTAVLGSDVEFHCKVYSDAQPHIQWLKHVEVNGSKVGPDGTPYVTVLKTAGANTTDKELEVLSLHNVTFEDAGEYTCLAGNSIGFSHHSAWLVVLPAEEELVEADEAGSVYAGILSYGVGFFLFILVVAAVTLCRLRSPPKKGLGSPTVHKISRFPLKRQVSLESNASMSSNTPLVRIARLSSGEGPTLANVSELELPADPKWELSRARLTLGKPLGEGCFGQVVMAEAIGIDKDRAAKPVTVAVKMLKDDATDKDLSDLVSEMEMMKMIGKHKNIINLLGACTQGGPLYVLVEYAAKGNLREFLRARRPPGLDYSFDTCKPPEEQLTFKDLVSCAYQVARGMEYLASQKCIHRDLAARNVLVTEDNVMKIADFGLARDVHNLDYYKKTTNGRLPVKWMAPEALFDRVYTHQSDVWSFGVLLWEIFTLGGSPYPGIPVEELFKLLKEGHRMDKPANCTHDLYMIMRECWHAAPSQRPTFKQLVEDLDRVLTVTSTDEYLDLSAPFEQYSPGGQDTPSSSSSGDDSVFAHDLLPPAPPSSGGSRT
# Fer (mouse) = assay: as above
# Fes = Fes (UniProt P07332); assay: as above
# Fyn = Fyn (UniProt P06241); assay: as above
# Sequence of Fyn (P06241 whole entry, looked up): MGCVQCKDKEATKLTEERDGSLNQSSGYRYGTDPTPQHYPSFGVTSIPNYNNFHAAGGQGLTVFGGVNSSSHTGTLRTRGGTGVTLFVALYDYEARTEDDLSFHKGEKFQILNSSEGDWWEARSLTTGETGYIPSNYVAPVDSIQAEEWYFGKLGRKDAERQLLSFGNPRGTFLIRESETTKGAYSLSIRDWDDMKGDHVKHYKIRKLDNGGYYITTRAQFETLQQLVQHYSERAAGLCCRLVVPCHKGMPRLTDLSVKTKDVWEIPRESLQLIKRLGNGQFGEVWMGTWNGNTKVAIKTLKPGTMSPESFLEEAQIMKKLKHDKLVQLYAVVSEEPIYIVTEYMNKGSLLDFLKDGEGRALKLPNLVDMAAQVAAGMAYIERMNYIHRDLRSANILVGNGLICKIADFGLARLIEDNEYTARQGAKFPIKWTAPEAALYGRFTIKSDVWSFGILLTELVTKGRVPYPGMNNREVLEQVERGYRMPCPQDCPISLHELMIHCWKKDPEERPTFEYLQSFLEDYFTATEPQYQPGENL
# Hck = Hck (UniProt P08631); assay: as above
# Sequence of Hck (P08631 whole entry, looked up): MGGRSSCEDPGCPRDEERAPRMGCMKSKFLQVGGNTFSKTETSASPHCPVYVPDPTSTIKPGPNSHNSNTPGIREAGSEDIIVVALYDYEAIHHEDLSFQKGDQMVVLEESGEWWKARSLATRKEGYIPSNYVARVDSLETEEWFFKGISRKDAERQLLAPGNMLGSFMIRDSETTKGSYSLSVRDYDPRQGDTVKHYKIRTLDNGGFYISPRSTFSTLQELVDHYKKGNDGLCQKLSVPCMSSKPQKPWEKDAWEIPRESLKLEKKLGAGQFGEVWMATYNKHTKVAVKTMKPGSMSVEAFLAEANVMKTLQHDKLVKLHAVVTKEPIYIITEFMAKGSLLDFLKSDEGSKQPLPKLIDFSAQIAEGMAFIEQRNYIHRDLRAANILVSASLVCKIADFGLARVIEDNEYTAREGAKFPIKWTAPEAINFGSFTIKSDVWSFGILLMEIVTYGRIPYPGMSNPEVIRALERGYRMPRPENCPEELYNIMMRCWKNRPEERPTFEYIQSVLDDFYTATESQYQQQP
# Jak2 = Jak2 (UniProt O60674); assay: as above
# Sequence of Jak2 (O60674 whole entry, looked up): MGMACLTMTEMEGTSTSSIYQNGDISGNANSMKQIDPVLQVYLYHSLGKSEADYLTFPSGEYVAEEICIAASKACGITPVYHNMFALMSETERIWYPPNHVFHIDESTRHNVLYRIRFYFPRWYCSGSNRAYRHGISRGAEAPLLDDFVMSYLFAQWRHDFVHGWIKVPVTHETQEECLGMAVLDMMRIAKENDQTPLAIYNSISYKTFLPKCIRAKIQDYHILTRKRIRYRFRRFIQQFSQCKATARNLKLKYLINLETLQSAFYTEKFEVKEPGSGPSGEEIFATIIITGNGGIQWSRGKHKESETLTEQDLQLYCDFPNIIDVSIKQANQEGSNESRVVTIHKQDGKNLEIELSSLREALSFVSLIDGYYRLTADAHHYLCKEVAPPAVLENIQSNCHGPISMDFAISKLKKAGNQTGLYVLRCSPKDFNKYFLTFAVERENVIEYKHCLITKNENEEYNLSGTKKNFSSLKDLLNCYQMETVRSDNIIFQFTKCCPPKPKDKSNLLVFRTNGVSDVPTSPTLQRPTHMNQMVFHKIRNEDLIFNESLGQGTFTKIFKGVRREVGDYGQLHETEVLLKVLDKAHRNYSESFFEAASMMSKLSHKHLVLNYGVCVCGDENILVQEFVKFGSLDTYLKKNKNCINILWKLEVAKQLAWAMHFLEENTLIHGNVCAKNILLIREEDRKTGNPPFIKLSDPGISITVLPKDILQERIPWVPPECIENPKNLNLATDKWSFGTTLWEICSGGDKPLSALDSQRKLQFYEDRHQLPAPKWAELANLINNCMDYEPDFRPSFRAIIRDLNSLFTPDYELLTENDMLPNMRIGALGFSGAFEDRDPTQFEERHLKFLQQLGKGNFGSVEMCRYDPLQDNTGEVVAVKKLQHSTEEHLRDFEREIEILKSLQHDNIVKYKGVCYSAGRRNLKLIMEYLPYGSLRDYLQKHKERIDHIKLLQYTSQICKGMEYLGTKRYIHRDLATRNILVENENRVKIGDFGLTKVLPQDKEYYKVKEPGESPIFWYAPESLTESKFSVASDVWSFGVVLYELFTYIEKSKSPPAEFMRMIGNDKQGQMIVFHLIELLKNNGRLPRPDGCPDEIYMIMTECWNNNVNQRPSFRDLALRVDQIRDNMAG
# MERTK = MERTK (UniProt Q12866); assay: as above
# Sequence of MERTK (Q12866 whole entry, looked up): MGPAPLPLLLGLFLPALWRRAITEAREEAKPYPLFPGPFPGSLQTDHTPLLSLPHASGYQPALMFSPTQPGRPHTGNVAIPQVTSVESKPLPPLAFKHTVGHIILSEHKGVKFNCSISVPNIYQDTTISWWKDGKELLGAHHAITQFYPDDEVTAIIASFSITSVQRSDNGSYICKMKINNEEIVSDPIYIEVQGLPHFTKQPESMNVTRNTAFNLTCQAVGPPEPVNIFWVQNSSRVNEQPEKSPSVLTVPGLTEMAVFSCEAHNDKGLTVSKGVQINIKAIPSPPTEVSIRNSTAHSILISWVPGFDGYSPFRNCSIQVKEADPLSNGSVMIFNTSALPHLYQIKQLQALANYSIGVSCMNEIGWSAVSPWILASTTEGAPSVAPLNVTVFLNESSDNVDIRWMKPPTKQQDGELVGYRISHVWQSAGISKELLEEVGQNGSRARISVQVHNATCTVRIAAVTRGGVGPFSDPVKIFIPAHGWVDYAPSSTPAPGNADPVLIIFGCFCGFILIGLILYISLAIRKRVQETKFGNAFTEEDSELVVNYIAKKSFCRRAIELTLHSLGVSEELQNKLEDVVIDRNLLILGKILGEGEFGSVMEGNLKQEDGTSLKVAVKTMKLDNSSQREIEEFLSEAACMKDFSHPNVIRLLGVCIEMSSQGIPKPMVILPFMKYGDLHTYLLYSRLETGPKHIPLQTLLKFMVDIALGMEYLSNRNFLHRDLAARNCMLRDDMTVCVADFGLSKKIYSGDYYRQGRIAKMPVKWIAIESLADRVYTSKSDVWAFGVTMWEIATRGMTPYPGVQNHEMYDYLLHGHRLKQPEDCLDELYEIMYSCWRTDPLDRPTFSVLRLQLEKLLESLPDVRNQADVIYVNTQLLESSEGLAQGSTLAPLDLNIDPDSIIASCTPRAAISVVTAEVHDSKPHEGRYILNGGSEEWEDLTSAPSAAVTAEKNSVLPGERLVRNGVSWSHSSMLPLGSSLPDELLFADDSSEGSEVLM
# c-Abl (mouse) = assay: as above
# c-Src = assay: as above
# Grb2 SH2 = Grb2 SH2 (UniProt P62993); assay: SH2 binding enrichment of the phosphorylated peptide, bacterial display (enrichment ratio); higher = better substrate or ligand; peptides without Tyr show the background
# SHP2-C SH2 = assay: as above
# c-Src SH2 = assay: as above
# 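Throughout, for SH2 binding enrichment of the phosphorylated peptide, bacterial display: peptide library displayed on the E. coli surface as eCPX fusions, selected cells deep-sequenced, score is each peptide's frequency after selection divided by its frequency in the input.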
# 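Throughout, for phosphorylation enrichment, bacterial display: 11-residue human phosphosite peptides and single-mutation variants displayed on the E. coli surface, counted by deep sequencing, each peptide's frequency after selection divided by its frequency in the unselected input library; frequency after pTyr selection over input frequency; kinase dosed for 20-30% of maximal phosphorylation in three min.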
SH2 binding enrichment (Grb2 SH2),SH2 binding enrichment (SHP2-C SH2),SH2 binding enrichment (c-Src SH2),Sequence,phosphorylation enrichment (AncSZ),phosphorylation enrichment (EPHB1),phosphorylation enrichment (EPHB2),phosphorylation enrichment (FGFR1),phosphorylation enrichment (FGFR3),phosphorylation enrichment (Fer (mouse)),phosphorylation enrichment (Fes),phosphorylation enrichment (Fyn),phosphorylation enrichment (Hck),phosphorylation enrichment (Jak2),phosphorylation enrichment (MERTK),phosphorylation enrichment (c-Abl (mouse)),phosphorylation enrichment (c-Src)
0.866,0.833,0.598,DDPRTYQKYGY [OAS1_Y362_R361T],0.74,0.458,0.611,0.446,0.555,0.41,0.76,0.43,0.492,0.635,0.421,0.572,0.549
1.34,0.691,0.893,RRNVFYFSFLL [PTEN_Y177_Y174N_YF],1.81,0.998,1.03,0.743,0.709,0.852,1.62,0.984,0.923,1.69,0.937,2.83,1.29
0.901,1.03,0.499,LQTFRYHGHSM [PDHA1_Y289_YF],0.664,0.843,0.61,0.68,0.999,0.592,1.06,0.948,0.616,0.876,0.716,0.775,0.761
0.724,0.634,0.448,GKVADYIPQLP [GLS_Y249_A254P],0.796,0.468,0.49,0.57,0.634,0.495,0.866,0.484,0.448,0.892,0.455,0.795,0.484
0.951,0.665,0.444,DKMEAYNINET [TEKT4_Y210_D213N],1.09,0.488,0.535,0.481,0.663,0.489,1.27,0.505,0.535,1.13,0.492,0.808,0.577
1.34,1.05,0.853,RQQEVYLLFKQ [RARRES1_Y159_D158V_YF],1.57,0.915,0.589,0.789,1.19,0.576,1.48,0.892,0.66,1.37,0.478,1.64,0.788
0.978,0.822,1.45,VSYDEYRYRSV [CFTR_Y515],0.754,0.485,0.417,0.455,0.484,0.381,0.942,0.633,0.586,0.71,0.428,0.667,0.743
1.35,1.15,0.8,FVSLIYTNFEA [GSTP1_Y109_I105V_YF],1.78,1.13,0.91,0.962,1.05,3.18,1.46,5.96,3.31,1.18,5.37,2.22,5.94
